Laboratory results published in the supplement of paper PMC6379048.

Assays:
Assay in all cases: EC50 of free RNA motif oligo competing protein binding to immobilised probe
[1] = target: T1, HNRNPDL (UniProt O14979)
T1 sequence: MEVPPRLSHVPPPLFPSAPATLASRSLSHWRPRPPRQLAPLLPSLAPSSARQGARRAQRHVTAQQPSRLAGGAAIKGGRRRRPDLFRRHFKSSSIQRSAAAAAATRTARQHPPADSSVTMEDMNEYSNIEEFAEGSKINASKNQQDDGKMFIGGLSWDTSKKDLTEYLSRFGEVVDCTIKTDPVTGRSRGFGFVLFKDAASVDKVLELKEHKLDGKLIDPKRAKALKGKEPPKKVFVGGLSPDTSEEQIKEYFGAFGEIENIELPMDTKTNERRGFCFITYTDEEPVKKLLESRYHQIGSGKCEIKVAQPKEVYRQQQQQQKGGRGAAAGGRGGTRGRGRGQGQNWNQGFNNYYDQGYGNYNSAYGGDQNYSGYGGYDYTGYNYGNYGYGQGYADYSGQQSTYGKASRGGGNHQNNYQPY
In short: (§1)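 To obtain EC50, data were fitted with a four-parameter log-logistic model; Kd was then EC50 multiplied by a protein-dependent depletion factor. Beforehand, free RNA oligos (0 nM to 30 μM) were pre-incubated with HEK293-FT lysate (2.5 mg protein/well) for 1 h at 4°C. The lysate then spent 30 min at 4°C with the same 5′-amino-C6 oligos coupled to NHS-Sepharose beads, and bound proteins were quantified by label-free LC-MS/MS, normalised to the control.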

[2] = target: T2, WDR33 (UniProt Q9C0J8)
T2 sequence: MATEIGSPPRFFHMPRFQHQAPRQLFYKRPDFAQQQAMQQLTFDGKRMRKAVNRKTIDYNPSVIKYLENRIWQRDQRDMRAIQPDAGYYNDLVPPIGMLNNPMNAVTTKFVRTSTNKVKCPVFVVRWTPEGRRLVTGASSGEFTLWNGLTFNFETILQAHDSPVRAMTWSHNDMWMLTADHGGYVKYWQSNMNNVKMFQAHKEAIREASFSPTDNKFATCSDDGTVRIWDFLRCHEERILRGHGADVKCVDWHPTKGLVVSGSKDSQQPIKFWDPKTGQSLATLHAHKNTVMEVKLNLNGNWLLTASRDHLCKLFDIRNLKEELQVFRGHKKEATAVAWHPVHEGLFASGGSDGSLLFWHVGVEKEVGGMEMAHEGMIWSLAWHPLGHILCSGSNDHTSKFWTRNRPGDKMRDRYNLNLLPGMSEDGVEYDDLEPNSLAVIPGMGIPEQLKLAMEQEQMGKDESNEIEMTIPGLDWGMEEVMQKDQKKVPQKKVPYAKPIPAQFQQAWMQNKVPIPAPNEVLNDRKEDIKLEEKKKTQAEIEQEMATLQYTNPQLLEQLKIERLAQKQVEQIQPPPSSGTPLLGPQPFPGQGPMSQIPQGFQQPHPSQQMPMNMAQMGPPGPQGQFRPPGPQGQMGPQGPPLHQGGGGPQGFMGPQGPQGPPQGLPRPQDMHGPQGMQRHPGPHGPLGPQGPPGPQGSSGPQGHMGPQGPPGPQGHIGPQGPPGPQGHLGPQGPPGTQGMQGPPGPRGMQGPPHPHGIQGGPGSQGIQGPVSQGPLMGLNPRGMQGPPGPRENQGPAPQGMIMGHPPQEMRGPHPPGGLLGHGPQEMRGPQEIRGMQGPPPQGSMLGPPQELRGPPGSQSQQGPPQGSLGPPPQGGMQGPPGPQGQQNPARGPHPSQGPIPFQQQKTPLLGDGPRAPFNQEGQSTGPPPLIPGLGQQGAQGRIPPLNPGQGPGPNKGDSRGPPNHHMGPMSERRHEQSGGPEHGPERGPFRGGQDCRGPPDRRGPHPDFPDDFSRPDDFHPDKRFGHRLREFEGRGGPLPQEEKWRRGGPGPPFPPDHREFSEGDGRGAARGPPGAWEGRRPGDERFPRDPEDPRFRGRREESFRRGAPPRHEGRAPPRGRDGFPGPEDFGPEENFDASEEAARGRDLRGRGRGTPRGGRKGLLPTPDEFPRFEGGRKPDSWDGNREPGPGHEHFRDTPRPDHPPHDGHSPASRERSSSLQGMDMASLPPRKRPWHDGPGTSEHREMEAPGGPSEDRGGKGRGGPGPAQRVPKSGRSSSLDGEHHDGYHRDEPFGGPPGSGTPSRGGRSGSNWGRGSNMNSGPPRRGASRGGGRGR
In short: as §1

[3] = target: T3, MEX3A (UniProt A1L020)
T3 sequence: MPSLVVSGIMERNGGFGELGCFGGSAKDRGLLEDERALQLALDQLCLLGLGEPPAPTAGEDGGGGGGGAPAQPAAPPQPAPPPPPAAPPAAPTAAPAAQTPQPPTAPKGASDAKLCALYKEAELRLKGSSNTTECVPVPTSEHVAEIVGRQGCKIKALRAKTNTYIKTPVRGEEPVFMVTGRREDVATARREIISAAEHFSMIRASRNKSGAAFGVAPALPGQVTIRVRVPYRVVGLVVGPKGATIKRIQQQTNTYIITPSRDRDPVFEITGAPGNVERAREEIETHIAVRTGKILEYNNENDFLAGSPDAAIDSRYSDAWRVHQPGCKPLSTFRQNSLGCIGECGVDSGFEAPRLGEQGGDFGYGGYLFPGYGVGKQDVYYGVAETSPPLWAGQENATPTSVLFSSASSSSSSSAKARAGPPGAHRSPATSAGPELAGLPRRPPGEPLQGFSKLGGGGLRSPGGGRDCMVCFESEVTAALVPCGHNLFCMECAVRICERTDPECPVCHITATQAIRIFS
In short: as §1

Sequence	EC50 [1] [µM]	EC50 [2] [µM]	EC50 [3] [µM]
AAUAAA	2.09	0.0646	1.47
UAUUUAU	3.48	0.96	0.989
